According to patent US9074002B2, “PTP1B inhibitors” (Cold Spring Harbor Laboratory, priority 2009, dated 2015):
“Also recorded” adds a separate entry of the source.

T1: endogenous PTP1B-OX (Homo sapiens, UniProt P18031)
T1 construct: endogenous in cells; host or cells: 293T cells (transfected only with the scFv intrabody)
T1 sequence (P18031 1-435): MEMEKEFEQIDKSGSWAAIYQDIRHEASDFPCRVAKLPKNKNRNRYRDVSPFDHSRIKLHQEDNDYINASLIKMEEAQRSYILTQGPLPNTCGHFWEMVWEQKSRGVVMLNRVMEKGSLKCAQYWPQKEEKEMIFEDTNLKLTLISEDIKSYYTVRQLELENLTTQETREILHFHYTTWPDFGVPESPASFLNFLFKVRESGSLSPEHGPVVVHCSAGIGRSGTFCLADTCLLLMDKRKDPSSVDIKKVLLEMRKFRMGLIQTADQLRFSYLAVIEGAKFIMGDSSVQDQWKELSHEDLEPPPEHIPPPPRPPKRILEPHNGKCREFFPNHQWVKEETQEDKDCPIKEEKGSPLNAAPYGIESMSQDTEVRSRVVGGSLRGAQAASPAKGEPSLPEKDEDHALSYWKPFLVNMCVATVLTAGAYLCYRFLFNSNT

T2: endogenous PTP1B under reducing conditions (Homo sapiens, UniProt P18031)
T2 construct: endogenous in cells; host or cells: 293T cells (transfected only with the scFv intrabody)
T2 sequence (P18031 1-435): T1 sequence (P18031 1-435)

T3: PTP1B (reduced, active) (Homo sapiens, UniProt P18031)
T3 construct: made in house; host or cells: E. coli BL21 (pET19b)
T3 sequence (P18031 3-277 limits assumed): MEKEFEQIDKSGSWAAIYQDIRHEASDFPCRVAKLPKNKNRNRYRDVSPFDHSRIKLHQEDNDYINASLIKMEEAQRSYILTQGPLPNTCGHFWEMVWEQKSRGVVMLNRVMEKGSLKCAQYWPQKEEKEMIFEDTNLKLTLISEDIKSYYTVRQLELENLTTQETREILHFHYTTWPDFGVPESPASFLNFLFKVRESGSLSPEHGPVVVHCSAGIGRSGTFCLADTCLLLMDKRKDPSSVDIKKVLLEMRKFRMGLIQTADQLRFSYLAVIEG

T4: PTP1B-OX (Homo sapiens, UniProt P18031)
T4 construct: made in house; host or cells: E. coli BL21 (pET19b)
T4 sequence (P18031 3-277): T3 sequence (P18031 3-277 limits assumed)

B1: scFv136: additional scFv, SEQ ID NO: 153 and 160 (protein)
scFv: MKKTAIAIAVALAGFATVAQAALTQPSSVSANPGETVKITCSGGSYSYGWYQQKSPGSAPVTVIYSSDKRPSDIPSRFSGSKSGSTSTLTITGVQAEDEAVYYCGSRDSNYVGIFGAGTTLTVLGQSSRSSTVTLDESGGGLQTPGGALSLVCKASGFTFSSYEMQWVRQAPGKGLEFVAAISSDGSYTNYGAAVQGRATISRDNGQSTVRLQLSNLRAEDTATYYCARSPGGYTWWPGAAGGIDAWGHGTEVIVSSTSGQAGQHHHHHHGAYPYDVPDYAS
B2: scFv64: scFv binding PTP1B-OX, SEQ ID NO: 28 and 97 (protein)
scFv: MKKTAIAIAVALAGFATVAQAALTQPSSVSANPGDPLKITCSGDSSGYGYGWYQQKSPGSAPVTVIYNNNKRPSDIPSRFSGSKSGSTGTLTITGVQAEDEAVYFCGSEDSNTDAVFGAGTTLTVLGQSSRSSTVTLDESGGGLQTPGGTLSLACKASGFTFSGYDMGWVRQAPGKGLEYVAGITSDGRYASYGSAVDGRAAIWRDNGQSTVRLQLKNLRTEDTATYYCARNDGSGWNGNNIDAWGHGTEVIVSSTSGQAGQHHHHHHGAYPYDVPDYAS
B3: scFv106: scFv binding PTP1B-OX, SEQ ID NO: 29 and 133 (protein)
scFv: MKKTAIAIAVALAGFATVAQAALTQPSSVSANPGETVKITCSGDSSDYGYGWYQQKSPGSAPVTVTYSNNQRPPNIPSRFSGSASGSTATLTITGVQVEDEAVYYCGSEDSTTDAVFGAGTTLTVLGQSSRSSAMTLDESGGGLQTPGGALSLVCKASGFTFSSYDMGWVRQAPGKGLEYVAGITNDGRYASYGSAVDGRATISRDNGQSTVRLQLNNLRAEDTGTYYCARDDGSGWTGNTIDTWGHGTEVIVSSTSGQAGQHHHHHHGAYPYDVPDYAS

Key:
endogenous PTP1B-OX = molecular target: T1, endogenous PTP1B-OX; assay: Intrabody interaction in 293T cells treated with H2O2 (Ni-NTA pull down / anti-PTP1B immunoprecipitation); format: cell-based; details: 1 mM H2O2 5 minutes
Description: (§1) One of the positive candidate scFvs (scFv45) was cloned in pcDNA3.2/V5-GW/D-TOPO expression vector and transiently expressed in mammalian cells as stable intracellular antibody (aka intrabody) (FIG. 10). To detect PTP1B-OX and scFv45 interaction in mammalian cells, scFv45 was overexpressed in 293T cells as described herein (See Example 4) and 48 hours post transfection the cells were serum-starved for 16 hours in growth medium (DMEM, low glucose) without serum (FBS), then incubated with 1 mM H2O2 (in growth medium without serum) for 5 minutes at 37° C. or treated with 20 mM NAC (in growth medium without serum) for 1 hour at 37° C. Cells treated with H2O2 were washed twice with cold (4° C.) PBS and lysed in lysis buffer (25 mM HEPES, pH 7.4, 150 mM NaCl, 0.25% Deoxychloate, 1% TritonX-100, 25 mM NaF, 10 mM MgCl2, 1 mM EDTA, 10% Glycerol, 0.5 mM PMSF, 10 mM Benzamidine, protease inhibitor cocktail). Cells treated with NAC were lysed with lysis buffer containing 2 mM TCEP to ensure a post-lysis reducing environment. Interaction between PTP1B and intrabody45 were tested by pulling down the protein complex from 1 mg of total cell lysate with Ni-NTA agarose or by immunoprecipitating PTP with anti-PTP1B (FG6). For the pull down experiment, Ni-NTA agarose beads were incubated with the lysates (both oxidized and reduced) at 4° C. Protein complex bound to the Ni-NTA agarose beads was pulled down and washed three times; first with lysis buffer containing 20 mM imidazole followed by two more washes with wash buffer (PBS, pH 7.4, 20 mM imidazole, 0.05% BSA, 0.05% Tween-20 and protease inhibitors). Applicant used 20 mM imidazole in the wash buffer to reduce the non-specific binding of proteins with the Ni-NTA agarose beads. The complex was eluted with wash buffer containing 500 mM imidazole with gentle shaking at 4° C. and the eluate was mixed with SDS sample buffer with DTT. For the immunoprecipitation experiments, 1 mg of total cell lystates (both oxidized and reduced) was incubated with anti-PTP1B antibody (FG6) at 4° C. The interacting protein complex was immunoprecipitated after incubating the lysate-antibody mixture with protein A/G Sepharose at 4° C. After immunoprecipitation, Sepharose beads were washed three times; first with lysis buffer followed by two more washes with wash buffer (PBS, pH 7.4, 0.05% BSA, 0.05% Tween-20 and protease inhibitors). The Sepharose beads were then heated at 90° C. in 2×SDS sample buffer with DTT. Proteins from the pulled down or immunoprecipitated complex were separated by SDS-PAGE. PTP was detected with anti-PTP1B antibody (FG6) and the intrabodies were detected with anti-HA (3F10)-HRP antibody [anti-HA (3F10)-HRP, Roche] by immunoblotting.
In the initial in vitro phosphatase screening assay using reversibly oxidized (with H2O2) recombinant PTP1B, Applicant found four different PTP1B-OX specific scFvs (scFv45, scFv57, scFv64 and scFv106) from the initial pool of 12 different scFvs. […] Applicant has also shown that scFv45, expressed as an intrabody in mammalian cells, can bind to endogenous PTP1B-OX but not endogenous PTP under reducing conditions. Further assessment was carried out to identify additional PTP1B-OX-specific intrabodies. Additional scFvs have been subcloned in pcDNA3.2/V5-GW/D-TOPO mammalian expression vector (FIG. 10) from their respective phagemid constructs. After transient overexpression of these scFvs as intrabodies in 293T cells, the interaction between endogenous PTP1B and these intrabodies in both H2O2-treated cells and cells was observed under reducing condition (treated with NAC and lysed with lysis buffer containing TCEP). […] All can be used in the methods and compositions described herein. Additional scFvs, such as some or all of the 137 selected individual scFvs from the library, can be similarly tested by in vitro screening and/or by binding assay in mammalian cells.

[1] = molecular target: T2, endogenous PTP1B under reducing conditions; assay: Intrabody interaction in 293T cells under reducing condition (NAC, TCEP) (Ni-NTA pull down / immunoprecipitation); format: cell-based; details: 20 mM NAC, lysis buffer with 2 mM TCEP, FIGS. 11, 12
Description: as §1
In the initial in vitro phosphatase screening assay using reversibly oxidized (with H2O2) recombinant PTP1B, Applicant found four different PTP1B-OX specific scFvs (scFv45, scFv57, scFv64 and scFv106) from the initial pool of 12 different scFvs. […] Applicant has also shown that scFv45, expressed as an intrabody in mammalian cells, can bind to endogenous PTP1B-OX but not endogenous PTP under reducing conditions. Further assessment was carried out to identify additional PTP1B-OX-specific intrabodies. Additional scFvs have been subcloned in pcDNA3.2/V5-GW/D-TOPO mammalian expression vector (FIG. 10) from their respective phagemid constructs. […]

PTP1B (reduced, active) = molecular target: T3, PTP1B (reduced, active); assay: Direct effect of scFvs/antibodies on PTP1B phosphatase activity (32P-pTyr-RCML substrate); format: biochemical; details: 32P-labeled pTyr-RCML substrate, FIG. 1
Description: (§2) Applicant's hypothesis was that scFvs that are able to bind to and stabilize the oxidized conformation of PTP1B in solution would inhibit reactivation by reducing agent, but have no direct inhibitory effect on phosphatase activity in assays in vitro. Activity was measured using ^32P-labeled pTyr-Reduced Carboxamidomethylated and Maleylated Lysozyme as substrate. Applicant established conditions in which wild type PTP1B could be reversibly oxidized in vitro. PTP1B was inactivated following addition of H2O2. […] Applicant validated this approach further, by testing the effects of expressing one of the scFvs (scFv45) as a single chain antibody fragment “intrabody” to PTP1B, using 293T cells as the expression system. This intrabody was expressed transiently and then tested for effects on insulin signaling, focusing initially on the tyrosine phosphorylation status of the beta-subunit of the insulin receptor and insulin receptor substrate (IRS-1).
(§3) Reduced carboxamidomethylated and maleylated lysozyme (RCML) was labeled with ^32P using recombinant GST-FER kinase to stoichiometries up to 0.8 (mol ^32P incorporated/mol of protein). This ^32P-Labeled phospho-tyrosyl RCML was used as the substrate in the in-solution phosphatase assay for screening the conformation sensor scFvs. Recombinant PTP1B was reversibly oxidized and transiently inactivated with H2O2 (5× molar excess of the protein). […] Purified bacterially expressed scFvs (100× molar excess of PTP1B) were incubated with PTP after H2O2 treatment and its removal and the effect of individual scFv on stabilizing the reversibly oxidized conformation was assessed by the phosphatase assay under reducing condition.
In order to screen the isolated scFvs for those that inhibit reactivation of PTP1B-OX by reducing agent, but have no direct inhibitory effect on phosphatase activity in assays in vitro, the effect of six scFvs (scFv20, scFv34, scFv45, scFv57, scFv64 and scFv106) on PTP1B activity was determined. PTP1B activity was measured using 32P-labeled pTyr-Reduced Carboxamidomethylated and Maleylated Lysozyme as substrate (FIGS. 1 and 2). Addition of the reducing agent TCEP alone had no substantial effect in PTP1B activity was assessed.

PTP1B-OX = molecular target: T4, PTP1B-OX; assay: Inhibition of reactivation of reversibly oxidized PTP1B by reducing agent (RCML phosphatase assay); format: biochemical; details: PTP1B oxidized with H2O2, buffer exchange, TCEP added; FIG. 2
Description: as §2, §3
In a different experiment, conditions were established in which wild type PTP1B could be reversibly oxidized in vitro. […] Addition of the reducing agent alone had no substantial effect on PTP1B activity (FIGS. 1 and 2, “PTP1B”).

Row | Molecule | binding of intrabody to endogenous PTP1B-OX (endogenous PTP1B-OX; FIGS. 11, 12) | binding of intrabody to endogenous PTP1B-OX (endogenous PTP1B-OX; FIGS. 11, 12, listed as scFv 136) | binding of intrabody to endogenous PTP1B under reducing conditions [1] | direct effect on PTP1B activity (PTP1B (reduced, active)) | inhibition of reactivation of PTP1B-OX by reducing agent (restoration of PTP1B activity after reversible oxidation) (PTP1B-OX)
1 | B1 | co-pulldown of PTP1B-OX in the presence of H2O2 | bound weakly to PTP1B-OX | not in the presence of NAC and TCEP |  | 
2 | B2 | bound weakly to PTP1B-OX |  |  | no direct inhibition of PTP activity | substantial inhibition of the restoration of PTP1B activity
3 | B3 | bound to endogenous PTP1B-OX strongly; also recorded: co-pulldown of PTP1B-OX in the presence of H2O2 |  | not in the presence of NAC and TCEP | no direct inhibition of PTP activity | substantial inhibition of the restoration of PTP1B activity
